The target in this test is GHS-R receptor. The experiment in a line: cell-based or functional assay.
Sequence of GHS-R receptor (Q92847 whole entry): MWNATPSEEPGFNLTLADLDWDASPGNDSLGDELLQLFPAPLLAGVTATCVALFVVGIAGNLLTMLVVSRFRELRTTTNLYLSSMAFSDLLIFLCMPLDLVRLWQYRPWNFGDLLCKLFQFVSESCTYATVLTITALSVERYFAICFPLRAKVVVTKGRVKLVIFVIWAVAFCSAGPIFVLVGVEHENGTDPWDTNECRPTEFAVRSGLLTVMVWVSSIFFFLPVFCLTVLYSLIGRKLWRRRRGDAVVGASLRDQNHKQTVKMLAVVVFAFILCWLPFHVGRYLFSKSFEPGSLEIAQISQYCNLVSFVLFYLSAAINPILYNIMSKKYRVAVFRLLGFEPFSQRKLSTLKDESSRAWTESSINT

B1: Vitamin D3-PEG-maleimide carrier-conjugated ghrelin from Example 3 (peptide)
peptide: GSSFLSPEHQKAQQRKESKKPPAKLQPRC
modifications: n-octanoyl-Ser at position 3; Vitamin D3-PEG (2 kDa)-maleimide carrier coupled to the free thiol of the added C-terminal cysteine
With B1, the “EC50, calcium flux (FLIPR) % activation in GHS-R-expressing CHO-K1 cells” value stood at 85 nM.

Source of the values: patent US20150104469A1 (EXTEND BIOSCIENCES, published 2015).
